“Also recorded” adds a separate entry of the source. No end group written: not given here.
Key:
[1] = molecular target: T1, polymerized microtubules (bovine brain tubulin) (Bos taurus, UniProt P81947+Q6B856); test: Microtubule depolymerization assay (centrosomes omitted); type: biochemical; conditions: centrosomes absent; nocodazole 15 μM as positive control; data not shown
T1 construct: containing 125 μg bovine brain tubulin (Cytoskeleton, Denver, Colo.); purchased Cytoskeleton, Denver, Colo; host or cells: bovine brain (tissue-purified)
T1 sequence (P81947 whole entry): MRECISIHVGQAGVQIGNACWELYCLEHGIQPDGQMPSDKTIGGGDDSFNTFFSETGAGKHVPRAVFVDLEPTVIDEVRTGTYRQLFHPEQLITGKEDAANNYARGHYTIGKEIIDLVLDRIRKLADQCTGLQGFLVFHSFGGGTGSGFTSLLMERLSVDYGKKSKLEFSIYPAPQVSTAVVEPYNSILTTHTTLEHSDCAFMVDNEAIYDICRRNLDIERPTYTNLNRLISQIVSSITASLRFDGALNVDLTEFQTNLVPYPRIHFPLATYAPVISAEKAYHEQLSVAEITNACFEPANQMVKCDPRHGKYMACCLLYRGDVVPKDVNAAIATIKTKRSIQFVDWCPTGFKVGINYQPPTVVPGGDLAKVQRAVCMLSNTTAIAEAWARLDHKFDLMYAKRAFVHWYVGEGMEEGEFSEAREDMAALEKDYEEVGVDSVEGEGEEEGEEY
T1 sequence (Q6B856 whole entry): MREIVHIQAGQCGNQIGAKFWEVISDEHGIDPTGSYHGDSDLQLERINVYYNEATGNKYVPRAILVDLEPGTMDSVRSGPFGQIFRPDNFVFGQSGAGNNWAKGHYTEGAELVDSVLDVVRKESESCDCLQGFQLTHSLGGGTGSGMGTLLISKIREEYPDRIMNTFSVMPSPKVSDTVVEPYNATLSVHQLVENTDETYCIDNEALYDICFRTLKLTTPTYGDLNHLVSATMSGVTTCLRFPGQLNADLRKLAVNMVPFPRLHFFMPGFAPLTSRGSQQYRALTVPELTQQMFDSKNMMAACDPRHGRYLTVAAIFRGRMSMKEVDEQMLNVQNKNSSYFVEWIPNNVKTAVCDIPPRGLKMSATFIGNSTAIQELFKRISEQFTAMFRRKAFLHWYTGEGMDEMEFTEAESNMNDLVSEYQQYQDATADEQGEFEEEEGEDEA
Procedure: Microtubule Depolymerization Assay
In this assay, centrosomes are omitted from the above reaction mixtures to determine the effects of various truncated GST-CPAP proteins or synthetic peptides on microtubule polymerization in the absence of centrosomes. Polymerized microtubules were stained using FITC-conjugated anti-α-tubulin monoclonal antibodies, as above. Nocodazole (15 μM) was added to some reactions mixtures as a positive control for microtubule depolymerization.

[2] = molecular target: T2, microtubule nucleation from purified centrosomes (bovine brain tubulin) (Bos taurus, UniProt P81947+Q6B856); test: In vitro centrosome-dependent microtubule nucleation assay; type: biochemical; conditions: for Inhibition of microtubule nucleation/assembly from purified centrosomes (in words): in vitro
T2 construct: containing 125 μg bovine brain tubulin (Cytoskeleton, Denver, Colo.); purchased Cytoskeleton, Denver, Colo; host or cells: bovine brain (tissue-purified)
T2 sequence (P81947 whole entry): as the sequence (P81947 whole entry) above
T2 sequence (Q6B856 whole entry): as the sequence (Q6B856 whole entry) above
Procedure: In vitro Centrosome-Dependant Microtubule Nucleation Assay
Isolation of centrosomes and microtubule nucleation tests were performed as described (Hung et al., 2000). To investigate the effect of different GST-truncated CPAP fusion proteins on microtubule nucleation, purified centrosomes (4 μl per reaction) were pre-incubated with the various truncated GST-CPAP fusion proteins or FPLC purified synthetic peptides for 10 min at 4° C. The reaction mixtures were then incubated in 65 μl RG1 buffer (80 mM PIPES, pH 6.8, 1 mM EGTA, 1 mM MgCl2, and 1 mM GTP) containing 125 μg bovine brain tubulin (Cytoskeleton, Denver, Colo.) for 4 min at 37° C.
Microtubules present in the reaction mixtures were fixed in 200 μl 1% glutaraldehyde in RG1 buffer, sedimented onto acid-treated coverslips, and subjected to immunofluoresence analysis using anti-α-tubulin monoclonal antibodies N356 (Amersham, Piscataway, N.J.) or FITC-conjugated anti-α-tubulin monoclonal antibodies (DM1A-FITC; Sigma, Saint Louis, Mo.). Truncated GST-CPAP proteins were detected using an anti-GST polyclonal antibody (Molecular Probes, Cincinnati, Ohio). The extent of microtubule assembly in each reaction was determined microscopically by comparing the extent of microtubule formation on each coverslip. Decreased microtubule formation in reactions comprising polypeptides derived from CPAP indicated the ability of such polypeptides to inhibit centrosome-dependent microtubule assembly.

HeLa cells = test: Cell-based assay for CPAP activity: microtubule reassembly in cold-treated transfected HeLa cells; set-up: species or system human; conditions: transiently transfected HeLa cells
Procedure: Cell Culture and Transfection
HeLa cells were maintained in DMEM supplemented with 10% fetal bovine serum. cDNA clones encoding different portions of CPAP were subcloned, in an appropriate reading frame, into the CMV promoter-driven EGFP-C1 expression vector (Clontech, Palo Alto, Calif.). Transient transfections were performed using Lipofectamine 2000 (Invitrogen, Carlsbad, Calif.) according to the manufacturer's instructions.
Cold Treatment, Immunofluorescence and Confocal Microscopy
HeLa cells were grown on coverslips for at least 24 hr. Cold treatment was performed by incubating the cells at 4° C. for 1 hr, then replacing the cold medium with medium warmed to 30° C. and incubating the cells for 2 min at 30° C. The cells were then fixed with 1% formaldehyde for 30 min at room temperature.
The fixed cells were incubated in the presence of anti-α-tubulin monoclonal antibodies (N356, Amersham, Piscataway, N.J.) and anti-γ-tubulin polyclonal antibodies (Sigma, Saint Louis, Mo.). Bound anti-α-tubulin monoclonal antibodies (N356) were detected with Alexa 568, a Texas Red-conjugated goat anti-mouse IgG, or Alexa 647, a far-red fluorophore-conjugated goat anti-mouse IgG. Bound anti-γ-tubulin polyclonal antibodies were detected with Alexa 568 (Molecular Probes Inc.). The resulting […] signals were detected using a laser scanning confocal system (MRC 1000, Bio-Rad Laboratories, Hercules, Calif.).
The effect of various polypeptides derived from CPAP was determined by evaluating the amounts of mitotic spindle formation in the transfected cells. Decreased mitotic spindle formation indicated the presence of an activity that inhibited microtubule formation or destabilized microtubules.

Row | Disassembly of polymerized microtubules in the absence of centrosomes (in words) [1] | Molecule | Inhibition of microtubule reassembly in cold-treated mitotic cells (in words) (HeLa cells) | further results
1 | no such effect | GST-PN2-1: GST fusion polypeptide with sub-region PN2-1 of PN2 (CPAP residues 132-190 per b157) (EFKEGAYKDPLFKKLEQLKEVQQKKQEQLKRQQLEQLQRLMEEQEKLLTMVSGQCTLPG; also: GST fusion, terminus not given here) |  | 
2 | disassembled | GST-PN2-3: GST fusion polypeptide corresponding to residues 311-422 of CPAP (protein, left off: a dimerising Fc or GST, GST fusion polypeptide corresponding to residues 311-422 of CPAP) QKHDDSSEVANIEERPIKAAIGERKQTFEDYLEEQIQLEEQELKQKQLKEAEGPLPIKAKPKQPFLKRGEGLARFTNAKSKFQKGKESKLVTNQSTSEDQPLFKMDRQQLQR |  | Inhibition of microtubule nucleation/assembly from purified centrosomes (in words) [2]: possessed the ability to inhibit microtubule assembly; also recorded: greatest level of inhibition
3 | disassembled | peptide M: synthetic peptide, amino acid residues 320-390 of CPAP (SEQ ID NO:1) (peptide, listed as Homo sapiens) ANIEERPIKAAIGERKQTFEDYLEEQIQLEEQELKQKQLKEAEGPLPIKAKPKQPFLKRGEGLARFTNAKS |  | Effect of synthetic peptide on centrosome-dependent microtubule nucleation (in words) ([2]; 20 μM or 40 μM peptide): inhibited centrosome-dependent microtubule nucleation in a dose dependent manner
4 |  | GFP-A5N: GFP-tagged CPAP residues 423-607 (protein, UniProt Q9HC77 423-607, looked up, fragment, GFP tag) KTALKNKELCADNPILKKDSKARTKSGSVTLSQKPKMLKCSNRKSLSPSGLKIQTGKKCDGQFRDQIKFENKVTSNNKENVTECPKPCDTGCTGWNKTQGKDRLPLSTGPASRLAAKSPIRETMKESESSLDVSLQKKLETWEREKEKENLELDEFLFLEQAADEISFSSNSSFVLKILERDQQI | no significant inhibition | 
5 |  | GFP-PN1: GFP-tagged CPAP residues 1-132 (protein, UniProt Q9HC77 1-132, looked up, fragment, GFP tag) MFLMPTSSELNSGQNFLTQWMTNPSRAGVILNRGFPILEADKEKRAAVDISTSFPIKGTHFSDSFSFINEEDSLLEEQKLESNNPYKPQSDKSETHTAFPCIKKGPQVAACHSAPGHQEENKNDFIPDLASE | no significant inhibition | 
6 |  | GFP-A5C: GFP-tagged CPAP residues 1070-1338 (protein, UniProt Q9HC77 1070-1338, looked up, fragment, GFP tag) KLANTSVRFQNSQISSGTQVEKYKKNYLPMQGNPPRRSKSAPPRDLGNLDKGQAASPREPLEPLNFPDPEYKEEEEDQDIQGEISHPDGKVEKVYKNGCRVILFPNGTRKEVSADGKTITVTFFNGDVKQVMPDQRVIYYYAAAQTTHTTYPEGLEVLHFSSGQIEKHYPDGRKEITFPDQTVKNLFPDGQEESIFPDGTIVRVQRDGNKLIEFNNGQRELHTAQFKRREYPDGTVKTVYANGHQETKYRSGRIRVKDKEGNVLMDTEL | no significant inhibition | 
7 |  | GFP-A5M2: GFP-tagged CPAP residues 607-1070 (protein, UniProt Q9HC77 607-1070, looked up, fragment, GFP tag) ICKGHRMSSTPVKAVPQKTNPADPISHCNRSEDLDHTAREKESECEVAPKQLHSLSSADELREQPCKIRKAVQKSTSENQTEWNARDDEGVPNSDSSTDSEEQLDVTIKPSTEDRERGISSREDSPQVCDDKGPFKDTRTQEDKRRDVDLDLSDKDYSSDESIMESIKHKVSEPSRSSSLSLSKMDFDDERTWTDLEENLCNHDVVLGNESTYGTPQTCYPNNEIGILDKTIKRKIAPVKRGEDLSKSRRSRSPPTSELMMKFFPSLKPKPKSDSHLGNELKLNISQDQPPGDNARSQVLREKIIELETEIEKFKAENASLAKLRIERESALEKLRKEIADFEQQKAKELARIEEFKKEEMRKLQKERKVFEKYTTAARTFPDKKEREEIQTLKQQIADLREDLKRKETKWSSTHSRLRSQIQMLVRENTDLREEIKVMERFRLDAWKRAEAIESSLEVEKKDK | no significant inhibition | 
8 | disassembled | GST-CM: GST fusion polypeptide corresponding to amino acid residues 132-607 of CPAP (protein, left off: a dimerising Fc or GST, GST fusion polypeptide corresponding to amino acid residues 132-607 of CPAP) EFKEGAYKDPLFKKLEQLKEVQQKKQEQLKRQQLEQLQRLMEEQEKLLTMVSGQCTLPGLSLLPDDQSQKHRSPGNTTTGERATCCFPSYVYPDPTQEETYPSNILSHEQSNFCRTAHGDFVLTSKRASPNLFSEAQYQEAPVEKNNLKEENRNHPTGESILCWEKVTEQIQEANDKNLQKHDDSSEVANIEERPIKAAIGERKQTFEDYLEEQIQLEEQELKQKQLKEAEGPLPIKAKPKQPFLKRGEGLARFTNAKSKFQKGKESKLVTNQSTSEDQPLFKMDRQQLQRKTALKNKELCADNPILKKDSKARTKSGSVTLSQKPKMLKCSNRKSLSPSGLKIQTGKKCDGQFRDQIKFENKVTSNNKENVTECPKPCDTGCTGWNKTQGKDRLPLSTGPASRLAAKSPIRETMKESESSLDVSLQKKLETWEREKEKENLELDEFLFLEQAADEISFSSNSSFVLKILERDQQI |  | Inhibition of microtubule nucleation/assembly from purified centrosomes (in words) [2]: inhibited
9 |  | GFP-CM: GFP-tagged CPAP residues 132-607, expressed from a transfected vector (protein, UniProt Q9HC77 132-607, looked up, fragment, GFP tag, GFP-tagged CPAP residues 132-607, expressed from a transfected vector) EFKEGAYKDPLFKKLEQLKEVQQKKQEQLKRQQLEQLQRLMEEQEKLLTMVSGQCTLPGLSLLPDDQSQKHRSPGNTTTGERATCCFPSYVYPDPTQEETYPSNILSHEQSNFCRTAHGDFVLTSKRASPNLFSEAQYQEAPVEKNNLKEENRNHPTGESILCWEKVTEQIQEANDKNLQKHDDSSEVANIEERPIKAAIGERKQTFEDYLEEQIQLEEQELKQKQLKEAEGPLPIKAKPKQPFLKRGEGLARFTNAKSKFQKGKESKLVTNQSTSEDQPLFKMDRQQLQRKTALKNKELCADNPILKKDSKARTKSGSVTLSQKPKMLKCSNRKSLSPSGLKIQTGKKCDGQFRDQIKFENKVTSNNKENVTECPKPCDTGCTGWNKTQGKDRLPLSTGPASRLAAKSPIRETMKESESSLDVSLQKKLETWEREKEKENLELDEFLFLEQAADEISFSSNSSFVLKILERDQQI | significantly inhibited microtubule reassembly | 
10 |  | GFP-PN2-2: GFP-tagged CPAP residues 191-310 (protein, UniProt Q9HC77 191-310, looked up, fragment, GFP tag) LSLLPDDQSQKHRSPGNTTTGERATCCFPSYVYPDPTQEETYPSNILSHEQSNFCRTAHGDFVLTSKRASPNLFSEAQYQEAPVEKNNLKEENRNHPTGESILCWEKVTEQIQEANDKNL | no significant inhibition | 

Row | Molecule | Disassembly of polymerized microtubules in the absence of centrosomes (in words) [1] | Inhibition of microtubule reassembly in cold-treated mitotic cells (in words) (HeLa cells) | further results
11 | COC(=O)Nc1nc2ccc(C(=O)c3cccs3)cc2[nH]1 [nocodazole, Nocodazole, reference compound] | disassembled |  | 

— patent publication US7449563B2, “Methods and compositions for destabilizing microtubules” (Academia Sinica, priority 2003, dated 2008)
